In US20240327502A1 (Merck Sharp & Dohme, published 2024):
Read-outs that look alike come from different tables or passages of the source.

Columns and labels:
[1] = target: unprocessed hMPV PreF V231A/G264R (human metapneumovirus strain B2); experiment: ELISA; Ni-NTA plate coated with Expi293 supernatant containing the His-tagged antigen; antibody titrated; OD450
Q434H = target: T1, Q434H; experiment: as above
T1 construct: also called unprocessed hMPV PreF Q434H

[2] = target: unprocessed hMPV PreF G264R/Q434H (human metapneumovirus strain B2); experiment: as above
[3] = target: unprocessed hMPV PreF G264R (human metapneumovirus strain B2); experiment: as above
V231A = target: T2, V231A; experiment: as above
T2 construct: also called unprocessed hMPV PreF V231A

[4] = target: T3, unprocessed hMPV PreF trimeric antigen (human metapneumovirus strain B2); experiment: as above
T3 construct: also called unprocessed hMPV WT PreF trimer; hMPV WT trimer

[5] = target: unprocessed hMPV PreF K138Q (human metapneumovirus strain B2); experiment: as above
[6] = target: F protein of RSV B/Washington virus (respiratory syncytial virus B, …); experiment: cell-based or functional assay
[7] = target: F protein of hMPV B virus (human metapneumovirus subtype B); experiment: cell-based or functional assay
[8] = target: F protein of hMPV A virus (human metapneumovirus subtype A); experiment: cell-based or functional assay
A249Y = target: T4, A249Y; experiment: ELISA on supernatant of cells transiently transfected with the MPV-F construct; antibody titrated; OD450
T4 construct: also called MPV-F A249Y

D209Y = target: T5, D209Y; experiment: as above
T5 construct: also called MPV-F D209Y

N202A = target: T6, N202A; experiment: as above
T6 construct: also called MPV-F N202A

A216Y = target: T7, A216Y; experiment: as above
T7 construct: also called MPV-F A216Y

N210A = target: T8, N210A; experiment: as above
T8 construct: also called MPV-F N210A

L219Y = target: T9, L219Y; experiment: as above
T9 construct: also called MPV-F L219Y

R253A = target: T10, R253A; experiment: as above
T10 construct: also called MPV-F R253A

R198A = target: T11, R198A; experiment: as above
T11 construct: also called MPV-F R198A

MPV-F (Example 7) = target: T12, MPV-F (Example 7) (human metapneumovirus, UniProt Q6WB98 19-489); experiment: as above
T12 construct: also called hMPV F monomer

R329A = target: T13, R329A; experiment: as above
T13 construct: also called MPV-F R329A

K312Q = target: T14, K312Q; experiment: ELISA; Ni-NTA plate coated with Expi293 supernatant containing the His-tagged antigen; antibody titrated; OD450
T14 construct: also called unprocessed hMPV PreF K312Q

D296K = target: T15, D296K; experiment: as above
T15 construct: also called unprocessed hMPV PreF D296K

T143K = target: T16, T143K; experiment: as above
T16 construct: also called unprocessed hMPV PreF T143K

N135T G139N Y233N = target: T17, N135T G139N Y233N; experiment: as above
T17 construct: also called unprocessed hMPV PreF N135T/G139N/Y233N

[9] = target: T3, unprocessed hMPV PreF trimeric antigen; experiment: as above; remark: listed apart in the source
T61A, S175R, A185D = target: T18, T61A, S175R, A185D; experiment: as above
T18 construct: also called unprocessed hMPV PreF T61A/S175R/A185D

B1: M2D2 (antibody, V domains shown)
VH: QVQLVQSGAEVKKPGASVKVSCKASGYNFDNYYMSWVRQAPGQGLEWLGIIDPSGGRISYAPKFQGRVTLTRDTSTSTVYMELRGLRFEDTALYYCARLEATHEGPWGQGTLVTVSS
VL: QSVLTQPPSASGTPGQRVTISCSGSNSNIGSSTVNWYQQLPGTAPKLLIYSDNHRPSGVPDRFSGSRSGTSASLVISGLHSEDEADYYCGTWDDGLNGPYVFGTGTKVTVL
notes: IgG
binding result [1]: binds | EC50 (read off the curve) (Q434H): ~0.01 µg/mL | binding result [2]: binds | binding result [3]: binds | EC50 (read off the curve) (V231A): ~0.006 µg/mL | EC50 (read off the curve) [4]: ~0.004 µg/mL | EC50 (read off the curve) [5]: ~0.006 µg/mL | PRNT IC50 [6]: 0.0039 µg/mL | PRNT IC50 [7]: 0.0584 µg/mL | PRNT IC50 [8]: 0.0296 µg/mL | EC50 (read off the curve) (A249Y): ~0.05 µg/mL | EC50 (read off the curve) (D209Y): ~0.04 µg/mL | EC50 (read off the curve) (N202A): ~0.03 µg/mL | EC50 (read off the curve) (A216Y): ~0.04 µg/mL | EC50 (read off the curve) (N210A): ~0.02 µg/mL | EC50 (read off the curve) (L219Y): ~0.05 µg/mL | EC50 (read off the curve) (R253A): ~0.04 µg/mL | EC50 (read off the curve) (R198A): ~0.02 µg/mL | EC50 (read off the curve) (MPV-F (Example 7)): ~0.02 µg/mL | EC50 (read off the curve) (R329A): ~0.03 µg/mL

B2: M2A05 (antibody, V domains shown)
VH: QITLKESGPTLVKPTQTLTLTCTVSGFSLSANSVGVAWFRQPPGKAPEWLGVIYWDDDKRFSPSLKTRLSITKDASTSQVVLRLTNVSPLDTATYYCVRKHYDLLQWGQGAPVTVSS
VL: EIVLTQSPGTLSLSPGEGATLSCRASRSVNSDYIAWYQHKPGLAPRLLIYAASTRATDIPDRFRADVSGTDFTLTIDRLEPDDFAVYYCQQYGSAVWTFGQGTRVEVK
notes: IgG
EC50 (read off the curve) (K312Q): ~0.003 µg/mL | EC50 (read off the curve) (D296K): ~0.07 µg/mL | EC50 (read off the curve) (T143K): ~0.003 µg/mL | EC50 (read off the curve) (N135T G139N Y233N): ~0.003 µg/mL | EC50 (read off the curve) [9]: ~0.004 µg/mL | EC50 (read off the curve) (T61A, S175R, A185D): ~0.004 µg/mL | PRNT IC50 [7]: 0.0657 µg/mL | PRNT IC50 [8]: > 10 µg/mL
